Source: paper PMC5811025

Tests used:
[1] = target: PrxQ:C54S (Corynebacterium glutamicum); test: mixed-disulfide heterodimer formation on non-reducing SDS-PAGE; 20 μM PrxQ variant and 15 μM Trx (WT or variant) in 30 mM Tris-HCl pH 8.0, 1 mM EDTA, room temperature 15 min, then 50 μM H2O2 for 30 min; 15% non-reducing SDS-PAGE
[2] = target: tag-free recombinant native peroxiredoxin Q (PrxQ) from Corynebacterium glutamicum (Corynebacterium glutamicum)

Row | Substance | stoichiometry N [1] | other results
1 | His6-Trx1:C35S (natural protein) | 1 | 
2 | His6-Trx2:C33S (natural protein) | 1 | 
3 | Trx1 WT (wild type) (natural protein) |  | Km for Trx1 of the peroxidase activity of PrxQ with CHP (NADPH-coupled assay, Trx1/TrxR system, 0-120 μM Trx, 1 μM PrxQ) [2]: 4.41 µM
4 | Trx2 WT (wild type) (natural protein) |  | Km for Trx2 of the peroxidase activity of PrxQ with CHP (NADPH-coupled assay, Trx2/TrxR system, 0-120 μM Trx, 1 μM PrxQ) [2]: 5.43 µM
